Measured values as given in patent US20160090416A1 (NUMAB, published 2016).
Numbering of substitutions follows the chain as printed.

B1: clone-02 (antibody, V domains shown)
VH: QSLEESGGRLVTPGTPLTLTCTVSGFPLSAYAMIWVRQAPGKGLEWIGMIIRSGTVYYANWAKGRFTISKTSTTVDLKITSPTTEDTATYFCARRHYNADGYPIGIGDLWGPGTLVTVSS
VL: AQVLTQTPSSVSAVVGGTVTISCQSSESVYSNNRLSWFQQKPGQPPKLLIYSASTLASGVPSRFKGSGSGTQFTLTITDLECDDAATYFCQGEFSCSSVDCFSFGGGTEVVVKG
B2: clone-06 (antibody, V domains shown)
VH: QSVEESGGRLVTPGTPLTLTCTVSGFPLSSYAMIWVRQAPGKGLEWIGMILRAGNIYYASWVKGRVTISKTSTTVDLKITSPTTEDTATYFCARRHYNREGYPIGIGDLWGPGTLVTVSS
VL: AQVLTQTPSSVSAAVGGTVTISCQSSESVYNNKRLSWFQQKPGQPPKQLIYTASSLASGVPSRFKGSGSGTQFTLTISDLECDDAATYYCQGEFTCSNADCFTFGGGTEVVVKG
B3: clone-03 (antibody, V domains shown)
VH: QSLEESGGRLVTPGTPLTLTCTVSGFPLNRYAMLWVRQAPGKGLEWIGLITRADKKYYASWAKGRFTISKTSTTVDLEITGPTTEDTATYFCARRHYNTDGYPIAIGDLWGPGTLVTVSS
VL: B2 VL with S26N, S28N, V29I, N31S, K33N, K47N, T52S, T95N, S97N, N98S
B4: clone-04 (antibody, V domains shown)
VH: QSLEESGGRLVKPDETLTLTCTVSGFPLSSYAMGWFRQAPGKGLEWIGMILRSDNTYYASWAKGRFTISKTSTTVDLKITSPTTEDTATYFCARRHYNASGNPIAIGDLWGPGTLVTVSS
VL: B2 VL with S22N, E27Q, K33N, Q48L, A53T, Q72E, D83A, T95S, N98R, T103N
B5: clone-10 (antibody, V domains shown)
VH: B3 VH with N29S, R30S, Y31F, L49M, T51M, D54H, K55N, K56M, G81S, D100Y
VL: AQVLTQTPSSVSAAVGGTATISCQSNENIYSNNRLSWFQQKAGQPPNQLIYSASSLASGVPSRFKGSGSGTQFTLTISDLECDDAATYYCQGEFSCSSADCFTFGGGTEVVVKG
B6: Construct 2 (anti-CD3×anti-IL5R scDb comprising the humanized variable domain of clone-02) (bispecific antibody)
chain: DIQMTQSPSSLSASVGDRVTITCQASQNIYSNLAWYQQKPGKAPKLLIYRASTLASGVPSRFSGSGSGTDFTLTISSLQPEDFATYYCQSNYGINYYGAAFGQGTKLTVLGGGGGSEVQLVESGGGLVQPGGSLRLSCAASGFPLSAYAMIWVRQAPGKGLEWIGMIIRSGTVYYANWAKGRFTISRDNSKNTVYLQMNSLRAEDTAVYYCARRHYNADGYPIGIGDLWGQGTLVTVSSGGGGSGGGGSGGGGSGGGGSDIQMTQSPSSLSASVGDRVTITCQSSESVYSNNRLSWYQQKPGKAPKLLIYSASTLASGVPSRFSGSGSGTDFTLTISSLQPEDFATYYCQGEFSCSSVDCFSFGQGTKLTVLGGGGGSEVQLVESGGGLVQPGGSLRLSCAASGFSLSSYDMTWVRQAPGKGLEWIGIIYVSGSAYYASWAKGRFTISRDNSKNTVYLQMNSLRAEDTAVYYCARINYGLDLWGQGTLVTVSS
B7: Construct 1 (anti-CD3×anti-IL5R scDb comprising the humanized variable domain of clone-06) (bispecific antibody)
chain: DIQMTQSPSSLSASVGDRVTITCQASQNIYSNLAWYQQKPGKAPKLLIYRASTLASGVPSRFSGSGSGTDFTLTISSLQPEDFATYYCQSNYGINYYGAAFGQGTKLTVLGGGGGSEVQLVESGGGLVQPGGSLRLSCAASGFPLSSYAMIWVRQAPGKGLEWIGMILRAGNIYYASWVKGRFTISRDNSKNTVYLQMNSLRAEDTAVYYCARRHYNREGYPIGIGDLWGQGTLVTVSSGGGGSGGGGSGGGGSGGGGSDIQMTQSPSSLSASVGDRVTITCQSSESVYNNKRLSWYQQKPGKAPKLLIYTASSLASGVPSRFSGSGSGTDFTLTISSLQPEDFATYYCQGEFTCSNADCFTFGQGTKLTVLGGGGGSEVQLVESGGGLVQPGGSLRLSCAASGFSLSSYDMTWVRQAPGKGLEWIGIIYVSGSAYYASWAKGRFTISRDNSKNTVYLQMNSLRAEDTAVYYCARINYGLDLWGQGTLVTVSS
B8: Construct 3 (anti-CD3×anti-IL5R scDb comprising the humanized variable domain of clone-03) (bispecific antibody)
chain: DIQMTQSPSSLSASVGDRVTITCQASQNIYSNLAWYQQKPGKAPKLLIYRASTLASGVPSRFSGSGSGTDFTLTISSLQPEDFATYYCQSNYGINYYGAAFGQGTKLTVLGGGGGSEVQLVESGGGLVQPGGSLRLSCAVSGFPLNRYAMLWVRQAPGKGLEWIGLITRADKKYYASWAKGRFTISKDNSKNTVYLQMNSLRAEDTAVYYCARRHYNTDGYPIAIGDLWGQGTLVTVSSGGGGSGGGGSGGGGSGGGGSDIQMTQSPSSLSASVGDRVTISCQSNENIYSNNRLSWYQQKPGKAPKLLIYSASSLASGVPSRFSGSGSGTDFTLTISDLEPEDFATYYCQGEFNCNSADCFTFGQGTKLTVLGGGGGSEVQLVESGGGLVQPGGSLRLSCAASGFSLSSYDMTWVRQAPGKGLEWIGIIYVSGSAYYASWAKGRFTISRDNSKNTVYLQMNSLRAEDTAVYYCARINYGLDLWGQGTLVTVSS

molecular target: human CD3ε expressed on the cell surface of T cells (Jurkat clone E6-1; human CD8+ T cells) (human) (UniProt P07766); assay: cell-based or functional assay
Sequence (P07766 23-207): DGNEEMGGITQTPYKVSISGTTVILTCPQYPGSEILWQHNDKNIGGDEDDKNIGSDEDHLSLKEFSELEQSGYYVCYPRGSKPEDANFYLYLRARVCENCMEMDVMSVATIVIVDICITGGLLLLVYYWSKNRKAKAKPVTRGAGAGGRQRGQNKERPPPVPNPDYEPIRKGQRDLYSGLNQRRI

| Molecule | Fold increase in CD69 expression [MFI normalized to neg. ctrl.], 1.25 µg/ml anti-CD3 IgG, cross-linked, Jurkat cells, 24 h | Fold increase in CD69 expression [MFI normalized to neg. ctrl.], 5 µg/ml anti-CD3 IgG, cross-linked, Jurkat cells, 24 h | Fold increase in CD69 expression [MFI normalized to neg. ctrl.], 20 µg/ml anti-CD3 IgG, cross-linked, Jurkat cells, 24 h |
| --- | --- | --- | --- |
| TR66 (antibody) | 1.6 fold | 2.2 fold | 3 fold |
| OKT3 (antibody) | 1.8 fold | 2.5 fold | 3.1 fold |

molecular target: T1, human CD3ε expressed on the cell surface of T cells (Jurkat clone E6-1; human CD8+ T cells) (human, UniProt P07766 23-207); assay: cell-based or functional assay
T1 sequence (P07766 23-207): as above

| Molecule | Fold increase in CD69 expression [MFI normalized to neg. ctrl.], 1.25 µg/ml anti-CD3 IgG, cross-linked, Jurkat cells, 24 h | Fold increase in CD69 expression [MFI normalized to neg. ctrl.], 5 µg/ml anti-CD3 IgG, cross-linked, Jurkat cells, 24 h | Fold increase in CD69 expression [MFI normalized to neg. ctrl.], 20 µg/ml anti-CD3 IgG, cross-linked, Jurkat cells, 24 h |
| --- | --- | --- | --- |
| B1 | 3.3 fold | 4.6 fold | 7.4 fold |
| B2 | 2.7 fold | 5.1 fold | 5.3 fold |
| B3 | 2.6 fold | 4.6 fold | 6.6 fold |
| B4 | 2.6 fold | 3.5 fold | 7.8 fold |
| B5 | 2.6 fold | 4.2 fold | 6.2 fold |

molecular target: T1, human CD3ε expressed on the cell …; assay: cell-based or functional assay; remark: another data set of the same source

| Molecule | Potency to stimulate IL-2 secretion by T cells [EC50] (CD8+ T cells with CHO-IL5R cells, 16 h) | Potency to lyse target cells [EC50] (CHO-IL5R cells, human CD8+ T cells, 88 h) |
| --- | --- | --- |
| B6 | 5.67 nM | – |
| B7 | 0.96 nM | 0.1 nM |

molecular target: T2, human heterodimeric single-chain CD3εγ extracellular domain (human, UniProt P07766 23-126; P09693 23-116); assay: SPR (MASS-1), human scCD3εγ ECD immobilized, scDb injected
T2 construct: extracellular domain; Produced in-house; single-chain protein of the extracellular domains of CD3ε and CD3γ joined by a flexible linker; also called scCD3γε; human CD3ge
T2 sequence (P07766 23-126, chain 1 of 2): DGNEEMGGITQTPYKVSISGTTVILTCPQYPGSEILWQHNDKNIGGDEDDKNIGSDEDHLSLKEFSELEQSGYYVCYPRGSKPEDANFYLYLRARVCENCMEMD
T2 sequence (P09693 23-116, chain 2 of 2): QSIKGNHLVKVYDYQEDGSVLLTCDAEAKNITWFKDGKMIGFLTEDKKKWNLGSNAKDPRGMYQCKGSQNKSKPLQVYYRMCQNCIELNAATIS

| Molecule | Kd |
| --- | --- |
| B6 | 29.6 nM |
| B8 | 123 nM |
| B7 | 11.5 nM |
